{"source": "paper PMC3905892", "about": "(Nucleic Acids Research, 2013)", "binders": {"B1": {"name": "Leo1(277–562) (domain or fragment)", "chain": "SDSEDEVLRMKRKNAIASDSEADSDTEVPKDNSGTMDLFGGADDISSGSDGEDKPPTPGQPVDENGLPQDQQEEEPIPETRIEVEIPKVNTDLGNDLYFVKLPNFLSVEPRPFDPQYYEDEFEDEEMLDEEGRTRLKLKVENTIRWRIRRDEEGNEIKESNARIVKWSDGSMSLHLGNEVFDVYKAPLQGDHNHLFIRQGTGLQGQAVFKTKLTFRPHSTDSATHRKMTLSLADRCSKTQKIRILPMAGRDPECQRTEMIKKEEERLRASIRRESQQRRMREKQHQ"}}, "target": "Paf1(57–392) (human, UniProt Q8N7H5 57-392)", "assay": "SEC"}
{"binder": "B1", "values": [{"measurement": "stoichiometry N", "value": 1}]}
